This test concerns the target actin filaments (Alexa488 label on 3-20% of the actin in the microscopy assays). The test is described as follows: co-sedimentation.

B1: unlabeled Tm1A (recombinant AS-Tm1A, non-muscle Drosophila tropomyosin isoform Tm1A) (natural protein)
chain: MASMTTSIPQGTLLDVLKKKMRQTKEEMEKYKDECEEFHKRLQLEVVRREEAESEVAALNRRIQLLEEDLERSEERLGSATAKLSEASQAADESERIRKALENRTNMEDDKVALLENQLAQAKLIAEEADKKYEEVARKLVLMEQDLERSEEKVELSESKIVELEEELRVVGNNLKSLEVSEEKATQKEETFETQIKVLDHSLKEAEARAEFAERSVQKLQKEVDRLEDDLLNVRGKNKLLQEEMEATLHDIQNM
Turning to B1, the dissociation constant Kd – broadly, the equilibrium constant for the complex coming apart – amounted to 46 nM.

The values are drawn from PMC4470865 (Current biology : CB, 2015).
